We go through eight molecules from patent US20140212423A1 (AbbVie / Abbott, published 2014).

The target in assay [1] is T1, mouse Transferrin Receptor overexpressed on Hek 293 cells (mouse, UniProt Q62351 1-763).
T1 construct: whole, on cells; also called Hek293/mTfR; 293/mTFR
Put plainly: cell-based MSD-ECL binding on Hek293 cells overexpressing mouse TfR. The procedure:
(§1) Meso-scale Discovery (MSD) Electrochemiluminescesnce (ECL) assays to screen for antibodies or DVDs that bind a desired target antigen expressed on the cell surface were performed as follows: Hek 293 cells overexpressing mouse Transferin Receptor were added onto MSD 96-well plates (MSD Cat# L11 XB-3, lot#2290-EA) which were blocked using blocking buffer (30% FBS Serum (Hyclone) in PBS) at 37° C. for 1 hr. After incubating at RT for 30 min with mild agitation, plates were washed with DPBS 3 times and Abs/DVDs (10,000 ng/ml) were added. After incubating for 1 hr at RT, plates were washed 3 times with DPBS and 25 ul of Goat anti human Sulfo TAG (MSD Cat# R32AC-, Lot# W001162) at 1 μg/ml is added. Following a 1 h incubation at RT for 1 hr, plates are washed and MSD read buffer is added before reading on MSD SECTOR Imager 6000. EC50 values are obtained using Xlfit4 software package

The target of assay [2] is T1, mouse Transferrin Receptor …. Put plainly: MSD-ECL assay, column headed IC50 (values match the cell-based mTfR binding EC50 of Table 7).
Assay [3] has as its target T2, rmTfR (123-763) (mouse, UniProt Q62351 123-763).
T2 construct: range 123-763; also called recombinant mouse transferrin receptor 123-763
Put plainly: Biacore SPR, DVD-Ig captured via anti-human Fc, rmTfR (123-763) in solution. The method, then: (§2) The BIACORE assay (Biacore, Inc, Piscataway, N.J.) was used to determine the affinity of antibodies or DVD-Ig™ with kinetic measurements of on-rate and off-rate constants. Binding of antibodies or DVD-Ig™ to a target antigen (for example, a purified recombinant target antigen) was determined by surface plasmon resonance-based measurements with a Biacore® 1000 or 3000 instrument (Biacore® AB, Uppsala, Sweden) using running HBS-EP (10 mM HEPES [pH 7.4], 150 mM NaCl, 3 mM EDTA, and 0.005% surfactant P20) at 25° C. All chemicals were obtained from Biacore® AB (Uppsala, Sweden) or otherwise from a different source as described in the text. For example, approximately 5000 RU of goat anti-human IgG, (Fcγ), fragment specific polyclonal antibody (Pierce Biotechnology Inc, Rockford, Ill.) diluted in 10 mM sodium acetate (pH 4.5) was directly immobilized across a CM5 research grade biosensor chip using a standard amine coupling kit according to manufacturer's instructions and procedures at 25 μg/ml. Unreacted moieties on the biosensor surface are blocked with ethanolamine. Modified carboxymethyl dextran surface in flowcell 2 and 4 is used as a reaction surface. Unmodified carboxymethyl dextran without goat anti-human IgG in flow cell 1 and 3 is used as the reference surface. For kinetic analysis, rate equations derived from the 1:1 Langmuir binding model were fitted simultaneously to association and dissociation phases of all eight injections (using global fit analysis) with the use of Biaevaluation 4.0.1 software. Purified antibodies or DVD-Ig™ were diluted in HEPES-buffered saline for capture across goat anti-human IgG specific reaction surfaces. Antibodies or DVD-Ig™ to be captured as a ligand (25 μg/ml) were injected over reaction matrices at a flow rate of 5 μl/min. The association and dissociation rate constants, kon (M⁻¹s⁻¹) and koff (s⁻¹) are determined under a continuous flow rate of 25 μl/min. Rate constants are derived by making kinetic binding measurements at different antigen concentrations ranging from 10-200 nM. The equilibrium dissociation constant (M) of the reaction between antibodies or DVD-Ig™s and the target antigen is then calculated from the kinetic rate constants by the following formula: KD=koff/kon. Binding is recorded as a function of time and kinetic rate constants are calculated.
Background: In SPR one partner is held on a chip, and binding of the other changes the refractive index at the surface.

Assay [4] has as its target T2, rmTfR (123-763). Put plainly: Biacore SPR, antibody captured via anti-human Fc, rmTfR (123-763) in solution. The method, then: as §2
For assay [5], the target named is T1, mouse Transferrin Receptor …. Put plainly: mTFR binding cell-based assay. The method, then:
as §1

Assay [6] has the same target. As to the kind of experiment: TfR binding EC50 column of Table 8 (cell-based assay; repeats Table 7). The procedure:
as §1

The target in assay [7] is T3, rmTfR (119-763) (mouse, UniProt Q62351 119-763).
T3 construct: range 119-763; also called recombinant mouse transferrin receptor 119-763
T3 sequence (Q62351 119-763): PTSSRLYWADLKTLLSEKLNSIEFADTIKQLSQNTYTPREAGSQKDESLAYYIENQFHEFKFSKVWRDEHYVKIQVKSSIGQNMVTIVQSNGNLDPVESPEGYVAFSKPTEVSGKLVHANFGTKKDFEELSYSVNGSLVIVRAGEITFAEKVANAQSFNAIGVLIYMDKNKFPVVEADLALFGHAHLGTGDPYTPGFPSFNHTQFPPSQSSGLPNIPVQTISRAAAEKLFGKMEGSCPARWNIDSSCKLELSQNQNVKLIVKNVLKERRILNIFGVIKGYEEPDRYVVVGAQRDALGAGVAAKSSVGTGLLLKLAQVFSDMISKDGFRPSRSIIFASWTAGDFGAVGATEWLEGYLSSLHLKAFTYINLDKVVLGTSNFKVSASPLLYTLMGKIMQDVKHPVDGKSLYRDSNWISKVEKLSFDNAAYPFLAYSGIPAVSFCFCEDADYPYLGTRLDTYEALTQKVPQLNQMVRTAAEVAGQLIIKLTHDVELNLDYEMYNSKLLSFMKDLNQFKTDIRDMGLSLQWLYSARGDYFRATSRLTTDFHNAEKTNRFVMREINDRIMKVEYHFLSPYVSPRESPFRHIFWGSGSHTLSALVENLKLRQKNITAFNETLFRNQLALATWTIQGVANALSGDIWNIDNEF
Put plainly: Biacore SPR, antibody captured via anti-human Fc, rmTfR (119-763) in solution. The procedure:
as §2, with “Antibodies or DVD-Ig™ to be captured as a ligand (25 μg/ml) were injected over reaction matrices at a flow rate of 5 μl/min.” left out, “Rate constants are derived by making kinetic binding measurements at different antigen concentrations ranging from 10-200 nM.” left out

T2 sequence (Q62351 123-763): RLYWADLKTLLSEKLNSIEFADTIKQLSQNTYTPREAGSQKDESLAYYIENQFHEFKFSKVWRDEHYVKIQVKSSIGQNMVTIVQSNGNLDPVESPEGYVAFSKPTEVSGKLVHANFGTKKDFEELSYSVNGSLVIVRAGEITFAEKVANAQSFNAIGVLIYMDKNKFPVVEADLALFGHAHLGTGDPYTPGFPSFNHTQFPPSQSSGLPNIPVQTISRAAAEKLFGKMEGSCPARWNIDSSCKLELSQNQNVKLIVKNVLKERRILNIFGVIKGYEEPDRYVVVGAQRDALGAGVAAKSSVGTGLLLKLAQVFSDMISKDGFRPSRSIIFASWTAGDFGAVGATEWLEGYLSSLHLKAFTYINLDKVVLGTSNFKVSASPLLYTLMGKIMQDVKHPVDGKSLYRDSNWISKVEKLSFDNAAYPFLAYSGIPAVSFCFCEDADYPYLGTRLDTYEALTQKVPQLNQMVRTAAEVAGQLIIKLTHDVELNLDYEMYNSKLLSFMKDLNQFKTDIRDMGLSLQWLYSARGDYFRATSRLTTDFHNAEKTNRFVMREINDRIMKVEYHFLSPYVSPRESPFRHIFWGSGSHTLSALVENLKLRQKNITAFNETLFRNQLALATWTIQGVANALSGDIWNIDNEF
T1 sequence (Q62351 whole entry): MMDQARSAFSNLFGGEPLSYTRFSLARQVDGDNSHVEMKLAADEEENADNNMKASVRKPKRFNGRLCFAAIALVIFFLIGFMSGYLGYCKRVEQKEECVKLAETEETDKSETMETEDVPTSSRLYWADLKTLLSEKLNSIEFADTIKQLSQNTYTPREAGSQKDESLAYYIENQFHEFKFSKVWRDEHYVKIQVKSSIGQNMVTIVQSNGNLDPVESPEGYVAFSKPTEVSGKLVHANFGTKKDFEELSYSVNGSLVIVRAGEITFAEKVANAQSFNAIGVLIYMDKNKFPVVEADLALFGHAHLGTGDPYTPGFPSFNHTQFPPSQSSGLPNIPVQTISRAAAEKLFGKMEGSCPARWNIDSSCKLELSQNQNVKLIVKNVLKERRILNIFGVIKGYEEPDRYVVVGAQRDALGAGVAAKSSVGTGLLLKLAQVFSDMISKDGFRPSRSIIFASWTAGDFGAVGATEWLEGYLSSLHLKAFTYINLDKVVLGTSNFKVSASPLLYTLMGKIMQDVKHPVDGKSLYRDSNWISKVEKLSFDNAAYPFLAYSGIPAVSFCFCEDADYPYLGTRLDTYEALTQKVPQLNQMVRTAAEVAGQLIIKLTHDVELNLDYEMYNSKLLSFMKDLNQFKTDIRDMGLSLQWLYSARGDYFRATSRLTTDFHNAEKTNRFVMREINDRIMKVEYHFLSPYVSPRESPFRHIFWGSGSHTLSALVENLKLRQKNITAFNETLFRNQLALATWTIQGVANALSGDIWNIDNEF

B1: DVD2671 (bispecific antibody)
VH: EVQLLESGGGLVQPGGSLRLSCAASGFTFSNYGMSWVRQAPGKGLEWVASIRSGGGRTYYSDNVKGRFTISRDNSKNTLYLQMNSLRAEDTAVYYCVRYDHYSGSSDYWGQGTLVTVSSASTKGPSVFPLAPEVQLVESGGGLVQPGNSLTLSCVASGFTFSNYGMHWIRQAPKKGLEWIAMIYYDSSKMNYADTVKGRFTISRDNSKNTLYLEMNSLRSEDTAMYYCAVPTSHYVVDVWGQGVSVTVSS
VL: DVVMTQSPLSLPVTPGEPASISCKSSQSLLDSDGKTYLNWLLQKPGQSPQRLIYLVSKLDSGVPDRFSGSGSGTDFTLKISRVEAEDVGVYYCWQGTHFPRTFGQGTKVEIKRTVAAPDIQMTQSPASLSASLEEIVTITCQASQDIGNWLAWYQQKPGKSPQLLIYGATSLADGVPSRFSGSRSGTQFSLKISRVQVEDIGIYYCLQAYNTPWTFGGGTKLELK
notes: DVD-Ig; also called AbetaLSTfR DVD2671
A word on the EC50: it is the concentration at which the effect is half-maximal. As usually defined, the IC50 is the concentration at which inhibition is half-maximal. For B1, the midpoint of the response in assay [1], the EC50, lay at 1.2 nM. Also, the IC50 in assay [2] worked out at 1.2 nM.

B2: DVD2668 (bispecific antibody)
VH: EVQLVESGGGLVQPGNSLTLSCVASGFTFSNYGMHWIRQAPKKGLEWIAMIYYDSSKMNYADTVKGRFTISRDNSKNTLYLEMNSLRSEDTAMYYCAVPTSHYVVDVWGQGVSVTVSSASTKGPSVFPLAPEVQLLESGGGLVQPGGSLRLSCAASGFTFSNYGMSWVRQAPGKGLEWVASIRSGGGRTYYSDNVKGRFTISRDNSKNTLYLQMNSLRAEDTAVYYCVRYDHYSGSSDYWGQGTLVTVSS
VL: DIQMTQSPASLSASLEEIVTITCQASQDIGNWLAWYQQKPGKSPQLLIYGATSLADGVPSRFSGSRSGTQFSLKISRVQVEDIGIYYCLQAYNTPWTFGGGTKLELKRTVAAPDVVMTQSPLSLPVTPGEPASISCKSSQSLLDSDGKTYLNWLLQKPGQSPQRLIYLVSKLDSGVPDRFSGSGSGTDFTLKISRVEAEDVGVYYCWQGTHFPRTFGQGTKVEIKR
notes: DVD-Ig, outer AB221 (TfR), inner AB043 (APP/Abeta), HG-long/LK-short; dual variable regions only; constant regions not assigned; also called TfRLSAbeta DVD2668
Take B2: a half-maximal response in assay [1] (EC50) required 0.1 nM. Also, in assay [2], the IC50 came out at 0.1 nM.

B3: DVD2360 (bispecific antibody)
VH: EVQLVESGGGLVQPGGSLRLSCAASGFTFSNYGMHWIRQAPGKGLEWIAMIYYDSSKMNYADTVKGRFTISRDNAKNSLYLQMNSLRAEDTAVYYCAVPTSHYVVDVWGQGTTVTVSSASTKGPEVQLLESGGGLVQPGGSLRLSCAASGFTFSNYGMSWVRQAPGKGLEWVASIRSGGGRTYYSDNVKGRFTISRDNSKNTLYLQMNSLRAEDTAVYYCVRYDHYSGSSDYWGQGTLVTVSS
VL: EIVMTQSPATLSVSPGERATLSCQASQDIGNWLAWYQQKPGQSPRLLIYGATSLADGVPARFSGSRSGTEFTLTISSLQSEDFAVYYCLQAYNTPWTFGGGTKVEIKRTVAAPDVVMTQSPLSLPVTPGEPASISCKSSQSLLDSDGKTYLNWLLQKPGQSPQRLIYLVSKLDSGVPDRFSGSGSGTDFTLKISRVEAEDVGVYYCWQGTHFPRTFGQGTKVEIKR
notes: DVD-Ig, outer AB403 (TfR), inner AB043 (APP), HG-short/LK-short; dual variable regions only; constant regions not assigned
Usually Kd stands for the equilibrium constant for the complex coming apart. A high value points to lower affinity. A word on the koff: it is the rate constant with which the complex falls apart. Read a low koff as slow dissociation. As a reminder, the kon is a measure of how fast the partners come together. A high value points to faster complex formation. As for B3, in assay [3], binding was characterised by a dissociation constant (Kd) of 1.7 nM, the koff is 4.8e-05 s⁻¹ and the kon was found to be 28000 M⁻¹ s⁻¹. In assay [1], this molecule came in with an EC50 of 0.15 nM.

B4: DVD2365 (bispecific antibody)
VH: QVQLVQSGAEVKKPGASVKVSCKASGFTFSNYGMHWIRQAPGQGLEWIAMIYYDSSKMNYADTVKGRFTITRDNSTNTLYMELSSLRSEDTAVYYCAVPTSHYVVDVWGQGTTVTVSSASTKGPEVQLLESGGGLVQPGGSLRLSCAASGFTFSNYGMSWVRQAPGKGLEWVASIRSGGGRTYYSDNVKGRFTISRDNSKNTLYLQMNSLRAEDTAVYYCVRYDHYSGSSDYWGQGTLVTVSS
VL: EIVMTQSPATLSVSPGERATLSCQASQDIGNWLAWYQQKPGQSPRLLIYGATSLADGVPARFSGSRSGTEFTLTISSLQSEDFAVYYCLQAYNTPWTFGGGTKVEIKRTVAAPDVVMTQSPLSLPVTPGEPASISCKSSQSLLDSDGKTYLNWLLQKPGQSPQRLIYLVSKLDSGVPDRFSGSGSGTDFTLKISRVEAEDVGVYYCWQGTHFPRTFGQGTKVEIKR
notes: DVD-Ig, outer AB405 (TfR), inner AB043 (APP), HG-short/LK-short; dual variable regions only; constant regions not assigned
With B4, in assay [3], the Kd came out at 78 nM, the koff was 0.000771 s⁻¹ and the kon stood at 9870 M⁻¹ s⁻¹. Besides, a half-maximal response in assay [1] (EC50) required 3.2 nM.

B5: AB403 (antibody, V domains shown)
VH: EVQLVESGGGLVQPGGSLRLSCAASGFTFSNYGMHWIRQAPGKGLEWIAMIYYDSSKMNYADTVKGRFTISRDNAKNSLYLQMNSLRAEDTAVYYCAVPTSHYVVDVWGQGTTVTVSS
VL: EIVMTQSPATLSVSPGERATLSCQASQDIGNWLAWYQQKPGQSPRLLIYGATSLADGVPARFSGSRSGTEFTLTISSLQSEDFAVYYCLQAYNTPWTFGGGTKVEIKR
notes: humanized variant of AB221; constant regions not assigned; also called TfR(AB403)
In assay [4], B5 had a Kd of 3.8 nM, a koff of 8.39e-05 s⁻¹ and a kon of 22000 M⁻¹ s⁻¹. The EC50 in assay [5] came to 0.09 nM. This molecule also gave an EC50 in assay [1] of 0.09 nM.

B6: AB405 (antibody, V domains shown)
VH: QVQLVQSGAEVKKPGASVKVSCKASGFTFSNYGMHWIRQAPGQGLEWIAMIYYDSSKMNYADTVKGRFTITRDNSTNTLYMELSSLRSEDTAVYYCAVPTSHYVVDVWGQGTTVTVSS
VL: EIVMTQSPATLSVSPGERATLSCQASQDIGNWLAWYQQKPGQSPRLLIYGATSLADGVPARFSGSRSGTEFTLTISSLQSEDFAVYYCLQAYNTPWTFGGGTKVEIKR
notes: constant regions not assigned; also called TfR(AB405)
With B6, the binding result in assay [4] is reported as “no binding (tested: antigen 10-200 nM)”. In addition, the EC50 in assay [5], in assay [6] and in assay [1] was 13.6 nM in each case.

B7: AB402 (antibody, V domains shown)
VH: EVQLVESGGGLVQPGGSLRLSCAASGFTFSNYGMHWIRQAPGKGLEWIAMIYYDSSKMNYADTVKGRFTISRDNAKNSLYLQMNSLRAEDTAVYYCAVPTSHYVVDVWGQGTTVTVSS
VL: AIQMTQSPSSLSASVGDRVTITCQASQDIGNWLAWYQQKPGKSPKLLIYGATSLADGVPSRFSGSRSGTDFTLTISSLQPEDFATYYCLQAYNTPWTFGGGTKVEIKR
notes: humanized variant of AB221; also called TfR(AB402)
For B7, in assay [4], binding was put at a Kd of 3.7 nM, the koff came out at 6.12e-05 s⁻¹ and the kon came out at 16400 M⁻¹ s⁻¹. In assay [5], the response was half-maximal at 0.06 nM (EC50). The molecule further registered an EC50 in assay [1] of 0.06 nM.

B8: AB221 (antibody, V domains shown)
VH: EVQLVESGGGLVQPGNSLTLSCVASGFTFSNYGMHWIRQAPKKGLEWIAMIYYDSSKMNYADTVKGRFTISRDNSKNTLYLEMNSLRSEDTAMYYCAVPTSHYVVDVWGQGVSVTVSS
VL: DIQMTQSPASLSASLEEIVTITCQASQDIGNWLAWYQQKPGKSPQLLIYGATSLADGVPSRFSGSRSGTQFSLKISRVQVEDIGIYYCLQAYNTPWTFGGGTKLELKR
notes: the assays detect/capture with anti-human IgG reagents; constant regions not assigned; also called TfR(AB221); anti-mouse TfR(AB221) antibody
In turn, B8 displayed an EC50 in assay [5] of 0.12 nM. In assay [6], this molecule displayed an EC50 of 0.1 nM. The response in assay [1] was half-maximal at 0.1 nM (EC50). In assay [7], this molecule came in with a Kd of 5 nM, a koff of 0.000181 s⁻¹ and a kon of 39400 M⁻¹ s⁻¹.
